Experimental data published in doi:10.1101/2021.10.21.465316 (bioRxiv, 2021).

B1: dehydrodolichyl diphosphate synthase (DHDDS), residues 1-333 (enzyme)
chain: MSWIKEGELSLWERFCANIIKAGPMPKHIAFIMDGNRRYAKKCQVERQEGHSQGFNKLAETLRWCLNLGILEVTVYAFSIENFKRSKSEVDGLMDLARQKFSRLMEEKEKLQKHGVCIRVLGDLHLLPLDLQELIAQAVQATKNYNKCFLNVCFAYTSRHEISNAVREMAWGVEQGLLDPSDISESLLDKCLYTNRSPHPDILIRTSGEVRLSDFLLWQTSHSCLVFQPVLWPEYTFWNLFEAILQFQMNHSVLQKARDMYAEERKRQQLERDQATVTEQLLREGLQASGDAQLRRTRLHKLSARREERVQGFLQALELKRADWLARLGTASA

Columns and labels:
[1] = target: B1; test: crystal structure
[2] = target: the molecule itself; test: crystal structure

| Binder | binding result [1] | binding result [2] |
| --- | --- | --- |
| Nogo B-receptor (NgBR) pseudo cis-prenyltransferase domain, residues 73-293, lacking residues 167-175 (domain or fragment) RGGSCLAAAHHRMRWRADGRSLEKLPVHMGLVITEVEQEPSFSDIASLVVWCMAVGISYISVYDHQGIFKRNNSRLMDEILKQQQELLGLDCSKDKDDQVLNCHLAVKVLSPEDGKADIVRAAQDFCQLVAQKQKRPTDLDVDTLASLLSSNGCPDPDLVLKFGPVDSTLGFLPWHIRLTEIVSLPSHLNISYEDFFSALRQYAACEQRLGK | binds |  |
| B1 |  | binds |
